What was measured:
[1] = target: RSV prefusion F (preF, DS-Cav1) (Respiratory syncytial virus); assay: BLI, IgG on sensor, 100 nM antigen
[2] = target: RSV postfusion F (postF, F deltaFP) (Respiratory syncytial virus); assay: BLI, IgG on sensor, 100 nM antigen

Binder	Kd [1] [nM]	Kd [2] [nM]
ADI-41292 (antibody, V domains shown) VH: EVQLLESGGGVVQPGRSLRLSCAASGFSFSSYGIHWVRQAPGKGLECVALMSYDGSEKYYADSVKGRFTISRDNSKNTLYLHMNSLRREDTAVYYCAKGSHLRWSHLDYYFHLWGRGTLVTVSS VL: DIVMTQSPSTLSASVGDRVTITCRASQSLSTWLAWYQQKPGKAPKLLISDASNLESGVPSRFSGRGSGTEFTLTISGLQPDDFATYYCQQERTFGQGTKVDIK	883	195
ADI-41303 (antibody, V domains shown) VH: QVQLVQSGGGLVRPGGSLRVSCAASGFIFNNYALTWVRQAPGKGLEWVSAISGSGSSTYYADSVKGRFTISRENSNNRLYLQLSGLRAEDTAVYFCARVRGLVWFEGRIDPYPNVFDYWGQGTLVTVSS VL: DIVLTQSPGTLSLSPGERATLSCRASQSVSNDYLAWYQQKPGQAPRLLIYDASSRAIGIPDRFSGSGSGTDFTLIISRLEPEDFAVYYCHHPGKFGQGTKVEIK	2.96	0.944
ADI-41308 (antibody, V domains shown) VH: EVQLVESGPGLVKPSQTLSLTCAISGDSVSSNSAAWNWIRQSPSRGLERMGRTYYRSKWYDDYAVSVKSRIIINPDTSKNQFSLQLNSVTPEDTAVYYCARGISTFGGVIYALEIWGQGTMVTVSS VL: SYVLTQPASVSGSPGQSITISCTGLTSDVGGYNFVSWYQQHPGKAPKLIIYDVSHRPSGVSNRFSGSESGNTASLTISGLQAEDEAHYYCSSYTRTSIVVFGGGTKLTVL	4	0.519
ADI-41315 (antibody, V domains shown) VH: EVQLLESGPGLVKPSETLSLTCAVSGGSISNYYWSWIRQPPGKGLEWIAYISYSGTTNYNPSLESRVTISVDTSKNQFSLKLNSVTAADTAVYYCARHEFLVLPDVWGQGTLVTVSS VL: ETTLTQSPGTLSLSPGERATLSCRASQSVSSTFLAWYQQKPGQAPRLLIYAASSRATGIPDRFSGSGSGTDFTLIISRLEPEDFAVYYCQQYRSSPFSFGPGTKVEIK	2.93	1.03
ADI-41311 (antibody, V domains shown) VH: QVTLKQSGPALVKPTQTLTLTCTFSGFSLSTKRMGVSWIRQPPGKALEWLARIDWDDDKYYSTSLRTRLTISKDTSKNQVVLTMTDMDPVDTATYYCARIQPYTSGGYYSYYFDYWGQGTLVTVSS VL: DIQVTQSPSSLSASIGDRVTITCRASQTIASYLNWYQQKPGKAPKLLIYIASSLQSGVPSRFSGSGSGTDFTLTISTLQPEDFATYYCQQSYGTPWTFGQGTKVEIK	0.754	0.524
ADI-41299 (antibody, V domains shown) VH: EVQLVESGGGLVHPGRSLRLSCGASGFTFRSFAMHWVRQAPGKGLEWVAVISYDGSDEYYADSVKGRFTISRDNSRNTLFLQMNRLRPEDTAIYYCARAYCSTSNCPVLDYWGQGTLVTVSS VL: QSVLIQPASVSGSPGQSITISCTGTSSDVGGYSLVSWYQQHPGKAPKLIIFEGNKRPAGVSDRFSGSKYGDTASLTISGLQAEDEADYYCCSYAGGHSVFGGGTKVTVL	3.48	2.25
ADI-41307 (antibody, V domains shown) VH: QVQLVESGGGLVKPGGSLRLSCAASGFPLSPYALNWVRQAPGKGLEWVSSITSSSAYIYYADSVKGRFTVSRDNPTNSLYLQMNSLRAEDTAVYYCARTIPQHYYDNNGDYYNYGMDVWGQGTTVTVSS VL: DIVLTQSPATLSVSPGQRITLSCRASQTVRSNLAWYQQKPGQPPRLLIYGASTRATGVPARFTGSGSGTEFTLTITSLQSDDFAVYYCHQYNDRPLTFGPGTKVEIK	2.99	0.83
ADI-41291 (antibody, V domains shown) VH: QVQLQQWGAGLLKPSETLSLTCVVYGESFSDSGYYWTWIRQPPEKGLEWIGEINHGGSTSYNPSLKSRVTISVDTSENQFSLKVTSVTGADTAVYYCARLRLGCSGGSCYSRFDYWGQGTLVTVSS VL: DIQLTQSPSSLSASVGDRVTITCRASQSINSYLNWYQQKPGKAPVLLIHAASSLQGGVPSRFSGSGSGTDFTLTISSLQPEDFATYYCQQSYNTRWTFGHGTKVDIK	2.98	1.2
ADI-41293 (antibody, V domains shown) VH: QVQLQQSGPGLAKPSQTLSLTCTVSGGPISGVDYYWSWIRQPPGKGLEWIGYIYYSGSTYYNPSLKSRVTISVDTSKKQFSLKMSSVTAADTAVYYCARDVGATPYYYYGMDVWGQGTTVTVSS VL: DIVLTQSPDTLSLSPGERATLSCRASQSVRSNYLAWYQHKPGQAPRLLIYGASSRVAGIPDRFSGSGSGTDFTLTISRLEPEDFAVYYCQQYGSSPPSVTFGGGTKVEIK	0.496	0.411
ADI-41287 (antibody, V domains shown) VH: EVQLVESGGGLVQPGRSLRLSCAASGFTFDDYAMHWVRQAPGKGLEWVSSISWHSADIGYAASVEGRFTISRDNAKNSLFLQMNSLRPEDTALYYCAKEIVSTSWYSGYFQDWGQGTLVTVSS VL: QPVLTQPRSVSGSPGQSVTISCTGTSSDVGDYNYVSWYQQHPGKAPKLMIYDVSKRPSGVPDRFSGSKSGNTASLTISGLQGEDEADYYCCSYAGRHTFVFGTATKVTVL	3.22	0.598
ADI-41304 (antibody, V domains shown) VH: EVQLVESGPGLVKPSQTLSLTCTVSGGSIRSHDYYWSWIRQPPGKGLEWIGYSYYSGSTYYNPSLKSRVIISLDTSKNQFSLNLTSVTAADTAMYYCARDRPHTSSWIPGWFDPWGQGTLVTVSS VL: SYELTQPPSASGTPGQRVTISCSGSSSNIGSNTVSWYQQFPGKAPKLLIYSNNERPSGGPDRFSGSKSGTSASLAIGGLQSEDEANYYCAAWDDSLYAVVFGGGTKLTVL	0.338	0.33
ADI-41306 (antibody, V domains shown) VH: QVQLVESGPRLVKPSQTLSLTCTVSGGSIYRGDYDWNWIRQPPGKGLEWIGYISYTGNTHYNSSLKSRLSISADTSGTHFSLKLSSVTAADTAIYYCARDVGYGGNAAHYYYYAMDVWGQGTTVTVSS VL: ETTLTQSPATLSLSPGERATLSCRASQSVGSSLAWYQQKVGQAPRLLIYDASSRVTGIPARFSGSGSGTDFTLTISSLEPGDFAVYYCQQRSNSLTFGGGTKVEIK	0.462	0.454
ADI-41286 (antibody, V domains shown) VH: QVQLVQSGAEVKKPGASVKVSCKASGYTFISYGISWVRQAPGQGPEWMGWISTHNGNTNYAQKLQGRVTMTTDTSTSTAYMELRSLRSDDTAVYYCARDERSIAVEVYLGSTFDIWGQGTMVTVSS VL: DIQVTQSPSSVSASVGDRVTITCRASQGISSWLAWYQQKPGKAPKLLIYAASTLQSGVPSRFSGSGSGTDFTLTISRLQPEDFATYYCQQANIFGVTFGPGTKVDIK	7.6	5.49
ADI-41313 (antibody, V domains shown) VH: EVQLVESGAEVKKPGASVKVSCKASGYTFNNYDISWVRQAPGQGLEWMGWISTYNGNTNYAQKFQGRATMTTDTSTTTAYMELRSLRSDDSAIYYCARVYCGGDCHNPFFLYFDLWGRGTLVTVSS VL: SYVLTQPLSVSVALGQTARITCGGNNIGSKSVHWYQQKPGQAPLLVIYRDNNRPSGIPERFSGSTSGNTATLTISRAQAGDEADYSCQVWDNSDWVFGGGTKLTVL	0.455	0.342
ADI-41323 (antibody, V domains shown) VH: EVQLLESGGGVVRPGGSLRLSCAASGFTFDDYAMGWVRQAPGKGLEWVSGITWNAGSTAYAGSVKGRFTISRDNAKNSLFLQMNSLRAEDTAFYLCARHVDSSGPVARHFDYWGQGTLVTVSS VL: NFMLTQPHSVSESPGKTVTISCTRSSGSIARNYVQWYQQRPGSAPTIVIYEDNQRPSGVPDRFSGSIDSSSNSASLTISGLKTEDEADYYCQSYDPSNVVFGGGTKLTVL	1.95	0.331
ADI-41316 (antibody, V domains shown) VH: QVQLVQSGGGVVQPGRSLRLSCAASGFTFNNYGMHWVRQAPGKGLEWVAVLSFDGINKYYADSARGRFTISRDNSKNTLYLQMNSLRAEDTALYYCAKDRQEYSSGWTHDACDIWGQGTMVTVSS VL: EIVMTQSPATLSVSPGERATLSCRASQNVNNNLAWYQQNPGQAPRLLIFGASTRATGIPARFSGSGSGTEFTLTISSLQSEDFAVYYCQQYNNWPRTFGQGTKLEIK	3.74	1.05
ADI-41309 (antibody, V domains shown) VH: EVQLLESGPGLVKPSQTLSLTCTVSGGSISSGDYYWSWVRQPPGKGLEWIGNIYHSGSTYYKPSLKSRVSISLDTSKNQFSLKLSSVTAADTAIYYCARDGGENYVWGTFRFLDVWGQGTTVTVSS VL: DIRLTQSPGTLSLSPGERATLSCRASQSVSSSYLAWYQQKPGQAPRLLIYGVSSRATGIPDRFSGSGSGTDFTLTINRLEPEDFALYHCQQYGSSPHTFGQGTKVEIK	4.34	1.36
ADI-41318 (antibody, V domains shown) VH: EVQLLESGAEVKKPGSSVRVSCKAFGGTFSSYAFSWVRQAPGQGLEWMGGITPMFGTENYAPNFQGRVTITADKLTTTVYMELSRLRSEDSAVYYCAREGGRLGTTMGAFDMWGQGTMVTVSS VL: DIRLTQSPSSLSASVGDRVTITCRASHGISSALAWYQQRPGRVPQVLIFHASTLESGVPSRFSGSGSGTDFTLTISSLQPEDFATYYCQQFNSYPYTFGQGTKVEIK	426	35.4
ADI-41297 (antibody, V domains shown) VH: QVQLVQSGAEVKKPGSSVKVSCKASGGTFSTDAISWVRQAPGQGLEWMGGIIPLFGTANYAQKFQGRVTITADESTSTAYMELNSLRSVDTAVYYCGRTGAFDGEVVVRPHLDLWGQGTLVTVSS VL: QPVLTQPASVSGSPGQSITISCTGTSSDVGGYDYVSWYQHHPGKAPKLMIYEVSNRPSGVSNRFSGSKSGNTASLTISGLQADDEAAYYCSSYTRSNTLLFGGGTKLTVL	3.91	0.628
ADI-41314 (antibody, V domains shown) VH: QVQLVQSGAEVKKPGSSVKVSCKAFGGIFSSYAISWVRQAPGQGLEWMGGIIPIFGTTKYAQKFQGRVTITADKSTSTVYMEVSSLRFEESAVYFCARAYCSGGTWYGGADYWGQGTLVTVSS VL: QSVLTQPPSVSVSPGQTARITCSGDVLPKQYAYWYQQKPGQAPLLVMYKDTERPSGIPERFSGSSSVTAVTLTISGVQAEDEADYYCQSADSTQELFGGGTKLTVL	2.41	0.414

Source: patent US20260258115A1
